Data as given in patent publication US20110239327A1, “Nematicidal Effects of Cysteine Proteinases and Methods of Use Thereof to Treat Nematode Infestation” (priority 2007, published 2011).

Test system: Heterodera glycines J2
Test: In vitro live/dead count of Heterodera glycines J2
Assay type: cell-based
Conditions: 250 μM active papain
Procedure: Eggs of M. incognita race 1 from North Carolina State University, USA were collected from tomato-infected roots grown in a glasshouse at 23° C. in a 16:8 h light-dark regime. Eggs were extracted using 1% hypochlorite (NaClO) solution (Hussey and Barker, 1973) or by picking egg masses from tomato-infected roots. Juveniles (J2) were hatched from the eggs and egg masses in water. Heterodera glycines eggs were obtained from soil samples stored in Rothamsted-Research. Second stage juveniles (J2) were hatched from the eggs in water after 10 days. Pratylenchus penetrans were a gift from Dr. Deeren Anne-Marie from the Institute for Agricultural and Fisheries Research, Merelbeke, Belgium. The beneficial nematodes Steinernema feltiae and Heterorhabditis megidis were a gift from Dr. Paul Williams from Becker Underwood.
Control wells were set up which contained J2s and distilled water with 16 mM L-cysteine. Each enzyme concentration and the controls were set up in duplicate (i.e. n=2). […] The number of live and dead J2s per well was counted after each enzyme incubation. The same procedure was followed when setting up further experiments to compare the effects of these enzymes with Heterodera glycines J2, Pratylenchus penetrans, Steinernema feltiae and Heterorhabditis megidis.

B1: papain (protein, UniProt P00784 134-345, looked up)
Papain: IPEYVDWRQKGAVTPVKNQGSCGSCWAFSAVVTIEGIIKIRTGNLNEYSEQELLDCDRRSYGCNGGYPWSALQLVAQYGIHYRNTYPYEGVQRYCRSREKGPYAAKTDGVRQVQPYNEGALLYSIANQPVSVVLEAAGKDFQLYRGGIFVGPCGNKVDHAVAAVGYGPNYILIKNSWGTGWGENGYIRIKRGTGNSYGVCGLYTSSFYPVKN
notes: cysteine proteinase from Carica papaya, Merops C01.001, Sigma P3125
state of the nematodes after incubation (16 hs): dead
recovery (after 48 hs): no recovery
